In patent publication US20210338751A1 one finds EC50 and IC50 (read off the curve) data, which are given here for three molecules.

Assay [1] has as its target recombinant HuNoV GII.3 P domain (Human Norovirus (HuNoV) GII.3). The assay is described as follows: ELISA on recombinant P domain.
Assay [2] deals with recombinant HuNoV GII.10 P domain (Human Norovirus (HuNoV) GII.10). The assay is described as follows: ELISA on recombinant P domain.
Assay [3] has as its target recombinant HuNoV GII.17 P domain (Human Norovirus (HuNoV) GII.17). The assay is described as follows: ELISA on recombinant P domain.
For assay [4], the target named is recombinant HuNoV GII.4 P domain (Human Norovirus (HuNoV) GII.4). The assay is described as follows: ELISA on recombinant P domain. In general terms: An ELISA detects its analyte on a solid surface through an enzyme-linked reagent.
For assay [5], the target named is recombinant HuNoV GI.1 P domain (Human Norovirus (HuNoV) GI.1). The experiment in a line: ELISA on recombinant HuNoV GI.1 P domain, Spirulina-expressed Ni-NTA purified protein, sample B2, not freeze-dried.
Assay [6] shares this target. The experiment in a line: ELISA on recombinant HuNoV GI.1 P domain, Spirulina-expressed Ni-NTA purified protein, sample B1, not freeze-dried.
For assay [7] the target is unchanged. The experiment in a line: ELISA on recombinant HuNoV GI.1 P domain, Spirulina-expressed Ni-NTA purified protein after freeze-drying.
For assay [8], the target named is GII.10 VLPs (human norovirus genotype GII.10). The experiment in a line: blocking of GII.10 VLP binding to pig gastric mucin (HBGA).

B1: Nano26-TxnA (VHH, not shown: large carriers)
VHH: QVQLQESGGGLVQPGGSLRLSCTAPRIIFFMYDVGWYRQAPEKQRELVAQINSDVSTKYADSVKGRFTISRDNAKRTVYLQMNDLKPEDAAVYYCNVRRASADYWGQGTQVTVSS
For the molecule B1, the EC50 (usually the concentration that produces a half-maximal response) was 4.46 nM in assay [1], 1.46 nM in assay [2], 2.52 nM in assay [3] and 15.4 nM in assay [4].

B2: Nano94 (no chaperone partner) (VHH)
VHH: QVQLQESGGGLVQAGGSLRLSCAASGRMFSINSMGWYRQAPGKERELVATISEAGTTTYADSVRGRFTIARDNAKNTVYLQMNSLNPEDTAVYYCNAYIQLDSTIWFRAYWGQGTQVTVSS
On to B2, for which the EC50 in assay [5] was 17.1 nM; in assay [6], 21.2 nM; in assay [7], 25.9 nM.

B3: SP828 (VHH)
VHH: QVQLQESGGGLVQSGGSLRLSCAASRNINSMHVVGWYRQAPGNQRELVASITDDGSTDYVDSVKGRFTISRDIAENTVYLQMNSLNPEDTAVYYCKGTIVVFTTPMHYWGKGTQVTVSS
As to B3, the IC50 (read off the curve) in assay [8] was 1 µg/mL.
